In the supplement of paper PMC10065799, “High-throughput profiling of sequence recognition by tyrosine kinases and SH2 domains using bacterial peptide display” (eLife, 2023):

Key:
[1] = target: SHP2-C SH2; experiment: SH2 binding enrichment of the phosphorylated peptide, bacterial display (enrichment ratio); higher = better substrate or ligand; peptides without Tyr show the background
[2] = target: Grb2 SH2 (UniProt P62993); experiment: as above
[3] = target: c-Src SH2; experiment: as above
[4] = target: MERTK (UniProt Q12866); experiment: phosphorylation enrichment, bacterial display (enrichment ratio); higher = better substrate or ligand; peptides without Tyr show the background
Chain of MERTK (Q12866 whole entry, looked up): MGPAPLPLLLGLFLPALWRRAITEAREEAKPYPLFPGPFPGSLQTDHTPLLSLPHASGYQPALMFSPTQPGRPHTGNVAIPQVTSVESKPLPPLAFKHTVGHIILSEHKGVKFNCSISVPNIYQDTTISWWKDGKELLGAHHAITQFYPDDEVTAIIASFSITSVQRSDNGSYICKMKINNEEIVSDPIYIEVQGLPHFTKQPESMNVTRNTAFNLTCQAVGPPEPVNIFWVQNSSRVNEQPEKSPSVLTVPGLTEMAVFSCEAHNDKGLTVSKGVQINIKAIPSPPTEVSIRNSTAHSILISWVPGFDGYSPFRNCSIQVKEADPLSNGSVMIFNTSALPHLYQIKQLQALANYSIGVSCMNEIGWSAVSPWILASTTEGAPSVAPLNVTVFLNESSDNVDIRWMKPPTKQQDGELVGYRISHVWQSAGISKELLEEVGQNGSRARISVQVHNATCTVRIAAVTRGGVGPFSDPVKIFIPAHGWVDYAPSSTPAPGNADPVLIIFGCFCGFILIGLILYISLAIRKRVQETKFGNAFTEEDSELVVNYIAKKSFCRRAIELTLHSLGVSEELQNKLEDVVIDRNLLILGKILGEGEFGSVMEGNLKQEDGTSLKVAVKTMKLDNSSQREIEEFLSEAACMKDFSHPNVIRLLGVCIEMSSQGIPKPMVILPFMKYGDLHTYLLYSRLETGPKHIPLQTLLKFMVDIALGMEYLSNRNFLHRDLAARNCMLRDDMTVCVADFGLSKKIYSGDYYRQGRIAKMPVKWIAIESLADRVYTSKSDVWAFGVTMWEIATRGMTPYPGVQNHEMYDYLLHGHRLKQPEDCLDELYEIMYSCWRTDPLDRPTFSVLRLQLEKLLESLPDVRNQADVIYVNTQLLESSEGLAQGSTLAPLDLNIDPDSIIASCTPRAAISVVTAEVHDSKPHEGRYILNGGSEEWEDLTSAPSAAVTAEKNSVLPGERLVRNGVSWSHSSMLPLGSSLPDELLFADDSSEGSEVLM

[5] = tested on: c-Abl (mouse); experiment: as above
[6] = target: EPHB1 (UniProt P54762); experiment: as above
[7] = target: FGFR1 (UniProt P11362); experiment: as above
Chain of FGFR1 (P11362 whole entry, looked up): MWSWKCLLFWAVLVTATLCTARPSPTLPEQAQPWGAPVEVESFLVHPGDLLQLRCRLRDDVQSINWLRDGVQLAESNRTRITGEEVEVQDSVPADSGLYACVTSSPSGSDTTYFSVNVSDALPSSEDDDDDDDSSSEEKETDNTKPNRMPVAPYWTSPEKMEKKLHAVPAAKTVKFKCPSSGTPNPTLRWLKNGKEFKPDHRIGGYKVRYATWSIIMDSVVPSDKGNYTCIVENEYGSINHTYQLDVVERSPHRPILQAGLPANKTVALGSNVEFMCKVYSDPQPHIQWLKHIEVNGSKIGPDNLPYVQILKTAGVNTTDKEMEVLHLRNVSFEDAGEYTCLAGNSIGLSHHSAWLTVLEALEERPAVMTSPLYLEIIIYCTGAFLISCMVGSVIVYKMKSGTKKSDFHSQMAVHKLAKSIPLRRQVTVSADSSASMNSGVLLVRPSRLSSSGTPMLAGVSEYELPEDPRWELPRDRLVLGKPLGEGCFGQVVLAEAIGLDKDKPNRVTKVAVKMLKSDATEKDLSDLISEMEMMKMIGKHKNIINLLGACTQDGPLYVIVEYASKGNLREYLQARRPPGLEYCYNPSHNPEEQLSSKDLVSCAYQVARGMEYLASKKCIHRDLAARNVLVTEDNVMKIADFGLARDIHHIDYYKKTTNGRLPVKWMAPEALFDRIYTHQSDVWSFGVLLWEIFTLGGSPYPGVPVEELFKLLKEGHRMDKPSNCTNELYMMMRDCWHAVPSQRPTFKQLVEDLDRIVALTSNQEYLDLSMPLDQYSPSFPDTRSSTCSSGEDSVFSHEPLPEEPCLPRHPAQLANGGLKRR

[8] = target: Fes (UniProt P07332); experiment: as above
[9] = tested on: c-Src; experiment: as above
[10] = target: FGFR3 (UniProt P22607); experiment: as above
Chain of FGFR3 (P22607 whole entry, looked up): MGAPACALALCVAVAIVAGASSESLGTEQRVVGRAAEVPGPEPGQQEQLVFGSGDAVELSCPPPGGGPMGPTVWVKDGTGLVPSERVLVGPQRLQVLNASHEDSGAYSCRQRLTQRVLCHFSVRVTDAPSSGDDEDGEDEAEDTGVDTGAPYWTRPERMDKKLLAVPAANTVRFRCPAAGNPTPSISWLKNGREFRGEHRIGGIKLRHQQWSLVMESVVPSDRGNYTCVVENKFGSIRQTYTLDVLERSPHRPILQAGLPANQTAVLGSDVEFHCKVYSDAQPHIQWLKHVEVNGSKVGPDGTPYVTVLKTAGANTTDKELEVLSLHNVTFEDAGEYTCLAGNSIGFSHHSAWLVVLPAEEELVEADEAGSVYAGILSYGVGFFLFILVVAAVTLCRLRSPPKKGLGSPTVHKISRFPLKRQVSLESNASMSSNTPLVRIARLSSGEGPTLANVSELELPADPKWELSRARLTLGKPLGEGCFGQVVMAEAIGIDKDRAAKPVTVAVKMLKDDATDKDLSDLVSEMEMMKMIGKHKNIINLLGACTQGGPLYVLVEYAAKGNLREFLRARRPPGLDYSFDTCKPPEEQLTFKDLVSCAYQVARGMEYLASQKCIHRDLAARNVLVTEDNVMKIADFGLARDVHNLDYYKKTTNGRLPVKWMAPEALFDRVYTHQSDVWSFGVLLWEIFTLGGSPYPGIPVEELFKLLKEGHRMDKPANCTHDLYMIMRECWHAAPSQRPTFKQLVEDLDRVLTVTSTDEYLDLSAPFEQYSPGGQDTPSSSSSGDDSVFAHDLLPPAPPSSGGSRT

[11] = target: Jak2 (UniProt O60674); experiment: as above
Chain of Jak2 (O60674 whole entry, looked up): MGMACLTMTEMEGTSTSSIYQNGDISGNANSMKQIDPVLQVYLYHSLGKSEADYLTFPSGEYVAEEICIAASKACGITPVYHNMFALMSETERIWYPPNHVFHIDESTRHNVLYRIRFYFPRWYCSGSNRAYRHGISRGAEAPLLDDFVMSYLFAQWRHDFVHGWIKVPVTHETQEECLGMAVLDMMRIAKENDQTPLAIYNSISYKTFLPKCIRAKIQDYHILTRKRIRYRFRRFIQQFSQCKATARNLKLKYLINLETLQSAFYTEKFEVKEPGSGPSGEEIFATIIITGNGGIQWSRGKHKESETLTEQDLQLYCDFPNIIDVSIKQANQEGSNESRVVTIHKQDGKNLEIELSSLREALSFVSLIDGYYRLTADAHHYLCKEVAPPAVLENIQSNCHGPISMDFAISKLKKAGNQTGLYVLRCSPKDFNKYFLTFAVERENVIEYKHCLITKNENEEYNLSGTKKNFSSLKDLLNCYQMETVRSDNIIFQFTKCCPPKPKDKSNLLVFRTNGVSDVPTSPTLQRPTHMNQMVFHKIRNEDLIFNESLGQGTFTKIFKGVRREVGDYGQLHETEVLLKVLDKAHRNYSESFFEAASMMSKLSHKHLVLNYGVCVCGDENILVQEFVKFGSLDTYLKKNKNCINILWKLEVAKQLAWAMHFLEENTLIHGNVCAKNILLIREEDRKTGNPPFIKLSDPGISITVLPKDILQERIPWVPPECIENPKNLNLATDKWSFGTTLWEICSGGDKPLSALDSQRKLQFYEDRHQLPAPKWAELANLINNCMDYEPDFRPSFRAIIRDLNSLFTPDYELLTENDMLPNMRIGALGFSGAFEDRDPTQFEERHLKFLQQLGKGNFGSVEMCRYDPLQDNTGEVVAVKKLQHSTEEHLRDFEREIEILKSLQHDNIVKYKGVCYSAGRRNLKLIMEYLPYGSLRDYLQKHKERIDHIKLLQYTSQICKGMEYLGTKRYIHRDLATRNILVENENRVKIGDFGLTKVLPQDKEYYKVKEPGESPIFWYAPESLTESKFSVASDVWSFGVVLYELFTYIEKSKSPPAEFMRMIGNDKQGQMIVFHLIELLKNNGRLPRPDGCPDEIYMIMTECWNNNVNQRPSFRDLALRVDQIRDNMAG

[12] = target: Fyn (UniProt P06241); experiment: as above
Chain of Fyn (P06241 whole entry, looked up): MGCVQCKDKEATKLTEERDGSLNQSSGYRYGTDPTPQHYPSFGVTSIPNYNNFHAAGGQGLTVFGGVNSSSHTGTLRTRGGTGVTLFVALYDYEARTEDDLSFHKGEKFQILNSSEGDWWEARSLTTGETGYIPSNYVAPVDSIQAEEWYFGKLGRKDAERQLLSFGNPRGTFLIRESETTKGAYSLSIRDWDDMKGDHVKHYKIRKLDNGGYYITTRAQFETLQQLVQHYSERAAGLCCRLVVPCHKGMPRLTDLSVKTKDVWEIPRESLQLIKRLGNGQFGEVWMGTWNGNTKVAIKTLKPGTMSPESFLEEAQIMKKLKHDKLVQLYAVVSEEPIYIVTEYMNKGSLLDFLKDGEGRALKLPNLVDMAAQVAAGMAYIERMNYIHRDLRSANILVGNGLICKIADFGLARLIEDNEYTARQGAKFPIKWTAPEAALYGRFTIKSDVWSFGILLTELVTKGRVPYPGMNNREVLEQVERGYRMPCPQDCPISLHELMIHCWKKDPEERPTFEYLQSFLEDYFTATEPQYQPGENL

[13] = target: Hck (UniProt P08631); experiment: as above
Chain of Hck (P08631 whole entry, looked up): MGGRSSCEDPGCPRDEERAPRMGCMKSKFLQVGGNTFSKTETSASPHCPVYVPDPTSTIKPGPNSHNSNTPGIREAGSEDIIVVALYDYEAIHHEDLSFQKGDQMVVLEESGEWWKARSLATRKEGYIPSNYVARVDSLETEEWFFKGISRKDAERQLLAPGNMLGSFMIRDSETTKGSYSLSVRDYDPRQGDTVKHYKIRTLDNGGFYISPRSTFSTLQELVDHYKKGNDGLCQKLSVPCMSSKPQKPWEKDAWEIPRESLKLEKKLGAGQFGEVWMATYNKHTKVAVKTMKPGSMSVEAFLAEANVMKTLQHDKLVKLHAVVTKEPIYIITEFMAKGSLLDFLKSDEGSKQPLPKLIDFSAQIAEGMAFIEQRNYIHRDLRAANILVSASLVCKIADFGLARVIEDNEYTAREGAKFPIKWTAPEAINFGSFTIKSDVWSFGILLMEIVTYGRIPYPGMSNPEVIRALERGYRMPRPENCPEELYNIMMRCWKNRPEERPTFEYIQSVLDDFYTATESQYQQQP

[14] = tested on: AncSZ; experiment: as above
[15] = target: EPHB2 (UniProt P29323); experiment: as above
[16] = tested on: Fer (mouse); experiment: as above
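For SH2 binding enrichment of the phosphorylated peptide, bacterial display in this document: peptide library displayed on the E. coli surface as eCPX fusions, selected cells deep-sequenced, score is each peptide's frequency after selection divided by its frequency in the input.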
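For phosphorylation enrichment, bacterial display in this document: 11-residue human phosphosite peptides and single-mutation variants displayed on the E. coli surface, counted by deep sequencing, each peptide's frequency after selection divided by its frequency in the unselected input library; frequency after pTyr selection over input frequency; kinase dosed for 20-30% of maximal phosphorylation in three min.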

Chain of Grb2 SH2 (P62993 whole entry, looked up): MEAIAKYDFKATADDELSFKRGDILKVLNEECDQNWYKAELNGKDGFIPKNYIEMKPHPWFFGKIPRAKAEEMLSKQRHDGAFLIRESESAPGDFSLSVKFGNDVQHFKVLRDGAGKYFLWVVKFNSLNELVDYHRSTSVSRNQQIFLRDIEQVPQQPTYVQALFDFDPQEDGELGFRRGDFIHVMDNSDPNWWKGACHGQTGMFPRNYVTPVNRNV

Row | Sequence | SH2 binding enrichment [1] | SH2 binding enrichment [2] | SH2 binding enrichment [3] | phosphorylation enrichment [4] | phosphorylation enrichment [5] | phosphorylation enrichment [6] | phosphorylation enrichment [7] | phosphorylation enrichment [8] | phosphorylation enrichment [9] | phosphorylation enrichment [10] | phosphorylation enrichment [11] | phosphorylation enrichment [12] | phosphorylation enrichment [13] | phosphorylation enrichment [14] | phosphorylation enrichment [15] | phosphorylation enrichment [16]
1 | SGGGLYRDMGA [CBX8_Y321] | 0.589 | 0.842 | 0.542 | 0.42 | 0.502 | 0.53 | 0.524 | 0.618 | 0.373 | 0.522 | 0.557 | 0.48 | 0.428 | 0.564 | 0.624 | 0.373
2 | SGGGSYGSGGG [KRT1_Y539] | 0.608 | 0.526 | 0.444 | 0.349 | 0.512 | 0.312 | 0.351 | 0.491 | 0.271 | 0.372 | 0.599 | 0.412 | 0.346 | 0.626 | 0.282 | 0.356
3 | SHLEDYPFNAE [AKR1B10_Y310] | 0.573 | 0.928 | 0.404 | 0.413 | 0.713 | 0.568 | 0.489 | 1.14 | 0.396 | 0.771 | 1.03 | 0.517 | 0.504 | 1.01 | 0.511 | 0.594
4 | SHMVDYQPYRK [TEX37_Y25] | 0.365 | 0.735 | 0.445 | 0.575 | 0.91 | 0.609 | 0.47 | 0.83 | 0.673 | 0.505 | 0.719 | 0.59 | 0.701 | 0.759 | 0.402 | 0.575
5 | SHNELYYEEAE [VANGL1_Y344] | 0.931 | 1.05 | 0.799 | 0.58 | 0.896 | 0.736 | 1.05 | 1.27 | 0.578 | 1.15 | 1.37 | 0.544 | 0.626 | 1.5 | 0.733 | 1.03
6 | SIIKDYFHRGT [GATM_Y203_A208T] | 0.631 | 0.685 | 0.469 | 0.365 | 0.514 | 0.42 | 0.476 | 0.62 | 0.569 | 0.542 | 0.551 | 0.433 | 0.463 | 0.656 | 0.604 | 0.465
7 | SILTVYSKDNY [PANK2_Y400_A398T] | 0.679 | 0.856 | 0.676 | 0.383 | 0.639 | 0.535 | 0.452 | 0.91 | 0.538 | 0.594 | 0.715 | 0.442 | 0.449 | 0.678 | 0.407 | 0.388
8 | SKEPFYVRCIK [MYO1D_Y586_YF] | 0.79 | 0.8 | 0.413 | 0.347 | 0.727 | 0.951 | 0.42 | 1.18 | 0.354 | 0.634 | 0.921 | 0.339 | 0.434 | 0.939 | 0.56 | 0.449
9 | SLALFYRNVYH [RBL1_Y792_K794N] | 0.566 | 0.743 | 0.446 | 0.382 | 0.576 | 0.511 | 0.603 | 1.25 | 0.381 | 0.741 | 0.869 | 0.419 | 0.524 | 0.923 | 0.433 | 0.45
10 | SLDLSYFHTSS [EMD_Y181_P183H_YF] | 0.591 | 0.907 | 0.599 | 0.566 | 0.645 | 0.517 | 0.549 | 0.881 | 0.466 | 0.595 | 1.06 | 0.464 | 0.559 | 0.799 | 0.6 | 0.441
11 | SLKAFYGEDAK [ALDH3A1_Y272_E270A] | 0.663 | 0.891 | 0.68 | 0.332 | 0.562 | 0.395 | 0.433 | 0.724 | 0.489 | 0.538 | 0.58 | 0.416 | 0.456 | 0.603 | 0.369 | 0.417
12 | SLLLSYYLIKW [NUP160_Y773_P768S] | 1.01 | 1.27 | 0.925 | 0.649 | 0.882 | 0.673 | 2.51 | 1.24 | 0.587 | 2.09 | 2.23 | 0.456 | 0.499 | 1.12 | 0.539 | 0.47
13 | SLNEGYARDFD [FBP1_Y216] | 0.765 | 1.06 | 0.562 | 0.485 | 0.767 | 0.505 | 0.461 | 0.94 | 0.44 | 0.617 | 0.908 | 0.639 | 0.547 | 1.06 | 0.573 | 0.554
14 | SLTRLCVGENA [NLRP3_Y861_Y861C] | 0.589 | 0.867 | 0.538 | 0.466 | 2.77 | 0.495 | 0.471 | 1 | 0.445 | 0.685 | 0.759 | 0.503 | 0.534 | 0.809 | 0.541 | 0.434
15 | SMGMKYLEEKN [ZAP70_Y451] | 0.86 | 0.962 | 0.638 | 0.383 | 0.644 | 0.518 | 0.493 | 0.879 | 0.434 | 0.506 | 0.727 | 0.7 | 0.398 | 0.717 | 0.463 | 0.454
16 | SNKLYYQLEQE [PDPR_Y110] | 0.725 | 1.17 | 2.13 | 3.9 | 1.11 | 0.903 | 5.94 | 1.19 | 2.36 | 4.95 | 1.27 | 1.52 | 0.922 | 1.37 | 0.761 | 0.601
17 | SNVEQYQAMVT [TPR_Y965] | 0.411 | 0.754 | 0.688 | 0.355 | 0.487 | 0.443 | 0.416 | 0.692 | 0.384 | 0.541 | 0.846 | 0.506 | 0.424 | 0.754 | 0.444 | 0.457

Row | Sequence | SH2 binding enrichment [1] | SH2 binding enrichment [2] | SH2 binding enrichment [3] | phosphorylation enrichment [4] | phosphorylation enrichment [5] | phosphorylation enrichment [6] | phosphorylation enrichment [7] | phosphorylation enrichment [8] | phosphorylation enrichment [9] | phosphorylation enrichment [10] | phosphorylation enrichment [11] | phosphorylation enrichment [12] | phosphorylation enrichment [13] | phosphorylation enrichment [14] | phosphorylation enrichment [15] | phosphorylation enrichment [16]
18 | SNYRAYATEPH [TNNI3_Y29] | 0.551 | 0.869 | 0.378 | 0.397 | 0.503 | 0.372 | 0.422 | 0.475 | 0.362 | 0.447 | 0.435 | 0.404 | 0.382 | 0.49 | 0.452 | 0.379
19 | SPFEVYVDKSQ [FLNA_Y373] | 0.697 | 1.02 | 0.685 | 0.388 | 0.581 | 0.669 | 0.493 | 1.27 | 0.481 | 0.726 | 0.99 | 0.477 | 0.499 | 1.08 | 0.515 | 0.499
20 | SPPILYSFYLD [FCRL6_Y239] | 1.14 | 1.28 | 0.882 | 8.22 | 0.736 | 3.28 | 1.42 | 1.05 | 2.74 | 0.924 | 0.775 | 2.03 | 1.57 | 1.31 | 4.22 | 1.37
21 | SPQAHYRLSAF [ADAMTS9_Y100_S96P] | 0.688 | 0.971 | 0.481 | 0.521 | 0.597 | 0.531 | 0.4 | 0.659 | 0.503 | 0.427 | 0.584 | 0.425 | 0.37 | 0.532 | 0.552 | 0.436
22 | SPRDTYSDRIG [CTPS1_Y567_S571I] | 0.617 | 0.844 | 0.438 | 0.416 | 0.411 | 0.516 | 0.379 | 0.605 | 0.406 | 0.494 | 0.374 | 0.453 | 0.471 | 0.445 | 0.5 | 0.358
23 | SQETFYRVSNM [ABCD1_Y181_Q178E_YF] | 0.807 | 0.836 | 0.597 | 0.448 | 0.86 | 0.412 | 0.386 | 0.763 | 0.49 | 0.473 | 0.7 | 0.396 | 0.457 | 0.61 | 0.528 | 0.443
24 | SQQTYCRVSNM [ABCD1_Y181_Y181C] | 0.616 | 0.897 | 1.01 | 0.738 | 0.851 | 3.76 | 0.587 | 0.88 | 0.718 | 0.683 | 0.623 | 0.751 | 1.41 | 0.799 | 1.98 | 0.526
25 | SRPTQYSSFSC [SPEM2_Y104] | 2.11 | 2.26 | 0.857 | 0.619 | 0.752 | 0.584 | 0.557 | 0.986 | 0.7 | 0.578 | 0.816 | 0.627 | 0.598 | 0.764 | 0.511 | 0.486
26 | SRVNKYSTAFG [GJB3_Y16_G12R] | 1.3 | 1.02 | 0.896 | 0.406 | 0.584 | 0.426 | 0.383 | 0.633 | 0.383 | 0.489 | 0.644 | 0.371 | 0.344 | 0.571 | 0.347 | 0.499
27 | SRVTQYERDFE [SNX1_Y463] | 0.77 | 0.854 | 0.697 | 0.379 | 0.844 | 0.428 | 0.501 | 0.954 | 0.396 | 0.611 | 0.635 | 0.46 | 0.476 | 0.837 | 0.486 | 0.419
28 | SSAAGYACLAY [MVD_Y131] | 3.04 | 0.721 | 2.42 | 0.498 | 0.897 | 0.553 | 0.547 | 1.07 | 0.593 | 0.736 | 1.02 | 0.531 | 0.575 | 0.9 | 0.615 | 0.574
29 | SSDKVYAHQMD [MLH1_Y379_V384D] | 0.552 | 0.729 | 0.576 | 0.408 | 0.442 | 0.537 | 0.452 | 0.708 | 0.491 | 0.52 | 0.497 | 0.493 | 0.419 | 0.611 | 0.502 | 0.395
30 | SSNLYYRWLTA [CNGA3_Y169] | 0.763 | 0.791 | 0.545 | 8.61 | 3.22 | 1.52 | 6.93 | 0.897 | 2.87 | 6.24 | 4.69 | 2 | 4.9 | 1.04 | 1.91 | 1.98
31 | SSNTEYLSASD [INSR_Y999_P997T] | 0.573 | 0.689 | 0.547 | 0.435 | 0.556 | 0.393 | 0.518 | 0.746 | 0.474 | 0.615 | 0.82 | 0.52 | 0.501 | 0.884 | 0.573 | 0.48
32 | SSSPTYPDLPF [GLI3_Y168] | 0.673 | 0.859 | 0.504 | 0.654 | 0.967 | 0.634 | 0.784 | 0.933 | 0.565 | 0.627 | 0.91 | 0.568 | 0.59 | 0.839 | 0.543 | 0.745
33 | SSWPGYVRPLP [HSPB1_Y54] | 0.654 | 0.97 | 0.741 | 0.407 | 0.54 | 0.48 | 0.491 | 0.648 | 0.491 | 0.458 | 2.22 | 0.52 | 0.485 | 0.774 | 0.423 | 0.459
